Measurements from the supplement of paper PMC10126150.
± gives the standard deviation of the averaged measurements.
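Note: ATP exposure 15 min at 22 °C before imaging.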

These sequences were tested on ATP (assay: switch fluorescence ratio, 500 uM ATP over buffer (Cy3 cluster intensity, sum of 5 cycles each) (fold (ratio)); higher = stronger signal-on switching upon ATP binding; sequences stand for … in TCGTCGGCAGCGTCAGATGTGTATAAGAGACAGTTTTTTTTTTTTTTTTTTTTTTTTT…TC). Conditions: aptamer strand: ATP DNA aptamer (quencher-CACCTGGGGGAGTATTGCGGAGGAAGG + anchor), 100 nM annealed; ATP concentration: 500 uM.
Method in brief: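 Clusters carrying Cy3-labelled switching strands on a modified Illumina MiSeq flow-cell were annealed to 100 nM quencher-labelled ATP aptamer and imaged in selection buffer. They were imaged again after 15 min with 500 uM ATP at 22 °C, over five buffer/ATP cycles with NaOH stripping and re-annealing in between. For each cluster, the fluorescence ratio is the summed Cy3 intensity of the target cycles divided by that of the buffer cycles, averaged per switch-domain sequence. Clusters outside 100-1000 RFU were left out.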
Work on TTAGTGTTTG yielded a switch fluorescence ratio of 1.02 ± 0.006.
For AATTTTATTT, the switch fluorescence ratio was 1.03 ± 0.062.
CGTTCGTGGG was tested, and the switch fluorescence ratio was 0.953 ± 0.018.
TTTCAGGGCT was tested, and the switch fluorescence ratio was 1.22 ± 0.16.
CTCATGGGTT showed a switch fluorescence ratio of 1.02 ± 0.0011.
Sequence CAAAGCGCGG has a switch fluorescence ratio of 0.997 ± 0.055.
AAAGGGGCTA showed a switch fluorescence ratio of 0.988 ± 0.02.
GGAAGTAGGT was tested, and the switch fluorescence ratio was 0.988 ± 0.02.
ACATAGTCGA showed a switch fluorescence ratio of 1.03 ± 0.045.
ATCTGTTAGG gave a switch fluorescence ratio of 1.03 ± 0.041.
For CTCGGGGGGT, the switch fluorescence ratio was 1.01 ± 0.014.
For CCAGGGGTAA, the switch fluorescence ratio was 1.17 ± 0.055.
CAATAAGTTT gave a switch fluorescence ratio of 1.01 ± 0.043.
CATGGCCTTA showed a switch fluorescence ratio of 0.972 ± 0.0097.
TGCCGGGGGT showed a switch fluorescence ratio of 1.03 ± 0.088.
AGAGGGCTGT was tested, and the switch fluorescence ratio was 1.01 ± 0.15.
GCGAGGGTTC was tested, and the switch fluorescence ratio was 0.991 ± 0.029.
TGTGGGGGG gave a switch fluorescence ratio of 0.951 ± 0.025.
ACGCTCCAGC gave a switch fluorescence ratio of 1.056 ± 0.0053.
AATTATTGAG gave a switch fluorescence ratio of 1.02 ± 0.038.
For AGGGGGGATT, the switch fluorescence ratio was 1 ± 0.019.
In the case of GAGAACGTAG, the switch fluorescence ratio is reported as 0.9817 ± 0.0066.
In the case of AGTGAGTCTT, the switch fluorescence ratio is reported as 0.994 ± 0.032.
Sequence TTTAGATAGG has a switch fluorescence ratio of 0.98 ± 0.026.
For CGGGCCATCG, the switch fluorescence ratio was 0.9939 ± 0.0063.
With TATACTGTAA the switch fluorescence ratio was 1.14 ± 0.031.
AAGTTAAGGC was tested, and the switch fluorescence ratio was 1.02 ± 0.013.
TGTGGTAAGG was tested, and the switch fluorescence ratio was 0.98472 ± 0.0006.
TTTCATCCAA was tested, and the switch fluorescence ratio was 1.42 ± 0.48.
For TTTATTCGTT, the switch fluorescence ratio was 0.9784 ± 0.0063.
AGATTATAGG gave a switch fluorescence ratio of 1.01 ± 0.018.
TTTGTTGACC was tested, and the switch fluorescence ratio was 1.02 ± 0.013.
TAAGCCTGTT gave a switch fluorescence ratio of 1 ± 0.021.
With AGAGTTAAAG the switch fluorescence ratio was 0.9917 ± 0.0072.
With GTAGATAGTT the switch fluorescence ratio was 1.02 ± 0.036.
ATGAAAGTAT gave a switch fluorescence ratio of 1.011 ± 0.0061.
AGTAGATTTT gave a switch fluorescence ratio of 0.986 ± 0.04.
Sequence GTGTATTGGG has a switch fluorescence ratio of 0.993 ± 0.025.
Work on ACGTGCACGA yielded a switch fluorescence ratio of 1.01 ± 0.015.
Sequence TTTGCCATAG has a switch fluorescence ratio of 1.02 ± 0.022.
Sequence CATCGGCTCA has a switch fluorescence ratio of 1.12 ± 0.067.
For ATCGAATGCT, the switch fluorescence ratio was 1.001 ± 0.0096.
For GATGGGGGCC, the switch fluorescence ratio was 0.998 ± 0.026.
Work on ATTGGGGAAG yielded a switch fluorescence ratio of 0.996 ± 0.049.
TGTGGGAGAG showed a switch fluorescence ratio of 0.973 ± 0.038.
GCTTGGTTTT was tested, and the switch fluorescence ratio was 1.01 ± 0.013.
AAGGTCGGCC showed a switch fluorescence ratio of 0.966 ± 0.017.
TTTGTAAGGG was tested, and the switch fluorescence ratio was 0.986 ± 0.021.
For GGTGTCGGGA, the switch fluorescence ratio was 0.9705 ± 0.009.
Sequence TTGGTTAATG has a switch fluorescence ratio of 1.01 ± 0.019.
CATGTGGGTA showed a switch fluorescence ratio of 0.981 ± 0.053.
For TGATAAACGG, the switch fluorescence ratio was 1 ± 0.019.
Sequence GGTGTTTATG has a switch fluorescence ratio of 0.9841 ± 0.0034.
Work on AATGGGTTGT yielded a switch fluorescence ratio of 1.02 ± 0.032.
In the case of GCATGACCAG, the switch fluorescence ratio is reported as 0.974 ± 0.026.
Work on GCGTGCATTA yielded a switch fluorescence ratio of 0.984 ± 0.034.
Work on CTGATATTGG yielded a switch fluorescence ratio of 0.994 ± 0.015.
For GGAGATGCTA, the switch fluorescence ratio was 0.9616 ± 0.0059.
AATTAGAGGG was tested, and the switch fluorescence ratio was 0.984 ± 0.046.
GCCCCCTTGG showed a switch fluorescence ratio of 2.02 ± 0.026.
GTAGTAAAGG showed a switch fluorescence ratio of 0.9867 ± 0.0034.
With GGAAGTCTCA the switch fluorescence ratio was 0.975 ± 0.012.
In the case of AATAGGGAGG, the switch fluorescence ratio is reported as 0.979 ± 0.025.
TTGCGCGGGG showed a switch fluorescence ratio of 1.02 ± 0.077.
AGTGTCTGC gave a switch fluorescence ratio of 0.97 ± 0.087.
ACGGGCCCGA showed a switch fluorescence ratio of 1.02 ± 0.029.
For AGTTTAACGC, the switch fluorescence ratio was 0.9911 ± 0.0059.
GGGAATCGTC was tested, and the switch fluorescence ratio was 0.987 ± 0.04.
Sequence CATACCCAAA has a switch fluorescence ratio of 1.05 ± 0.039.
For TCATACTGTG, the switch fluorescence ratio was 1.03 ± 0.014.
For GGAAAGGGGC, the switch fluorescence ratio was 0.95 ± 0.053.
CGGGGGGGAT showed a switch fluorescence ratio of 1.02 ± 0.026.
ACCTTGATGG was tested, and the switch fluorescence ratio was 0.976 ± 0.077.
GAAACTAATG was tested, and the switch fluorescence ratio was 1.01 ± 0.013.
GGGCATAACT was tested, and the switch fluorescence ratio was 1.04 ± 0.044.
In the case of TGAGCGGTAG, the switch fluorescence ratio is reported as 1.028 ± 0.004.
CGCAAAGGGC was tested, and the switch fluorescence ratio was 2.12 ± 1.4.
With AGGGTAGGCC the switch fluorescence ratio was 1.009 ± 0.0019.
In the case of TAGTTGGGAG, the switch fluorescence ratio is reported as 0.973 ± 0.012.
ATATGGGCGG showed a switch fluorescence ratio of 0.98 ± 0.016.
Sequence TTACCGGGGG has a switch fluorescence ratio of 1.042 ± 0.0095.
In the case of GATGCAATCT, the switch fluorescence ratio is reported as 1.44 ± 0.08.
Work on AGCGGCATCT yielded a switch fluorescence ratio of 0.983 ± 0.0093.
For GTAATGGACC, the switch fluorescence ratio was 1.03 ± 0.043.
ATGTCGAGGT showed a switch fluorescence ratio of 1.01 ± 0.035.
Sequence CGGGGGCCAG has a switch fluorescence ratio of 0.994 ± 0.038.
CTGATGGGG showed a switch fluorescence ratio of 0.986 ± 0.021.
GGGGGTTTGT was tested, and the switch fluorescence ratio was 0.983 ± 0.011.
Sequence GGTAAGTCTA has a switch fluorescence ratio of 0.9832 ± 0.0059.
Sequence TATGGGTTCT has a switch fluorescence ratio of 1 ± 0.031.
GATTGGGAGG was tested, and the switch fluorescence ratio was 1.03 ± 0.034.
With TGTTTGAGGG the switch fluorescence ratio was 1.02 ± 0.024.
In the case of CCGTGACAAT, the switch fluorescence ratio is reported as 4.12 ± 0.34.
With TTTATGGGAC the switch fluorescence ratio was 0.999 ± 0.052.
AGGGATTCGC showed a switch fluorescence ratio of 0.997 ± 0.011.
With TAATCGGGGA the switch fluorescence ratio was 0.984 ± 0.029.
ATCATTTATT was tested, and the switch fluorescence ratio was 1.01 ± 0.042.
In the case of TTGCATGGTG, the switch fluorescence ratio is reported as 1.06 ± 0.03.
TCCGAACTCG showed a switch fluorescence ratio of 1.22 ± 0.019.
Sequence CTGTGGACCG has a switch fluorescence ratio of 0.974 ± 0.017.
In the case of GGCGGATAAG, the switch fluorescence ratio is reported as 0.979 ± 0.013.
Work on TTGTATGTGT yielded a switch fluorescence ratio of 0.983 ± 0.032.
With TGTAAACCGC the switch fluorescence ratio was 1.2 ± 0.16.
With AGGGAAAATT the switch fluorescence ratio was 0.995 ± 0.011.
With TAAAGAAAGG the switch fluorescence ratio was 1.02 ± 0.013.
TGAATCGGGG was tested, and the switch fluorescence ratio was 1.027 ± 0.0014.
Work on TGAGGGGGGC yielded a switch fluorescence ratio of 1.01 ± 0.044.
CCAGTTTGGA was tested, and the switch fluorescence ratio was 0.998 ± 0.017.
Work on GGGACCGGTG yielded a switch fluorescence ratio of 1.03 ± 0.02.
Sequence GCAAGGGGAT has a switch fluorescence ratio of 1.06 ± 0.11.
Work on TTTAGTGGGT yielded a switch fluorescence ratio of 0.984 ± 0.026.
In the case of GTGATGGATG, the switch fluorescence ratio is reported as 0.997 ± 0.057.
Sequence CTGGTCGGGG has a switch fluorescence ratio of 1.017 ± 0.0096.
For GGGTCGTAGC, the switch fluorescence ratio was 1.01 ± 0.037.
Sequence AGTAGGGGAG has a switch fluorescence ratio of 1.01 ± 0.028.
GGCGTCGACG was tested, and the switch fluorescence ratio was 1.02 ± 0.11.
Sequence CGATGTTGAG has a switch fluorescence ratio of 1.002 ± 0.01.
For ATTCTGTGGT, the switch fluorescence ratio was 0.97 ± 0.019.
AGAGTAGGGG was tested, and the switch fluorescence ratio was 0.979 ± 0.029.
For GGCTAGCTAC, the switch fluorescence ratio was 1.09 ± 0.012.
GGGGAAAGGT was tested, and the switch fluorescence ratio was 0.989 ± 0.029.
In the case of ATTTCTATTT, the switch fluorescence ratio is reported as 1.01 ± 0.059.
GATGTGCAGA gave a switch fluorescence ratio of 0.959 ± 0.038.
TATTACAAGT gave a switch fluorescence ratio of 1.01 ± 0.015.
In the case of TTTTAGGGTT, the switch fluorescence ratio is reported as 1.01 ± 0.027.
GAATCGTCG showed a switch fluorescence ratio of 0.983 ± 0.025.
CCTAAAAGGG was tested, and the switch fluorescence ratio was 1 ± 0.032.
With ATTGGGGGTC the switch fluorescence ratio was 0.995 ± 0.05.
ATTTACGCCT gave a switch fluorescence ratio of 1.12 ± 0.05.
GGTAACGTGA showed a switch fluorescence ratio of 1.01 ± 0.023.
In the case of ATCATAATTG, the switch fluorescence ratio is reported as 1.005 ± 0.0092.
With CGGGGTTACC the switch fluorescence ratio was 0.9924 ± 0.0059.
For TCGGGGGTTA, the switch fluorescence ratio was 1.01 ± 0.023.
GGTAGAAACT showed a switch fluorescence ratio of 1.04 ± 0.014.
In the case of TTGCGTATGC, the switch fluorescence ratio is reported as 1.08 ± 0.11.
GGAGTGACGG was tested, and the switch fluorescence ratio was 0.9979 ± 0.0024.
In the case of CGTTGAGTAT, the switch fluorescence ratio is reported as 0.981 ± 0.019.
With TATGTAAACA the switch fluorescence ratio was 1 ± 0.025.
TTGGTAGTCT gave a switch fluorescence ratio of 1.04 ± 0.012.
In the case of TTGTCGGGTT, the switch fluorescence ratio is reported as 1.01 ± 0.018.
With TTTTACCATT the switch fluorescence ratio was 1.09 ± 0.061.
Work on TTGTTTGTT yielded a switch fluorescence ratio of 0.994 ± 0.019.
Work on ATTATCAGCG yielded a switch fluorescence ratio of 1.01 ± 0.019.
Sequence TTTTGCAAGC has a switch fluorescence ratio of 1.14 ± 0.13.
AGGCACTACA gave a switch fluorescence ratio of 1.017 ± 0.0064.
Work on GTTGTGTGAT yielded a switch fluorescence ratio of 0.982 ± 0.027.
CGGGTATTTG gave a switch fluorescence ratio of 1.04 ± 0.028.
Work on TTCTGACGG yielded a switch fluorescence ratio of 1.48 ± 0.55.
GGGGGTCCTC gave a switch fluorescence ratio of 1.001 ± 0.01.
Sequence CTTGGTGCTT has a switch fluorescence ratio of 0.974 ± 0.021.
TTTAGGGGTA showed a switch fluorescence ratio of 0.996 ± 0.018.
In the case of ATGTTTGTCT, the switch fluorescence ratio is reported as 0.97 ± 0.039.
Sequence GCAGGGGGCC has a switch fluorescence ratio of 1.4 ± 0.63.
In the case of GGGAGGAGGC, the switch fluorescence ratio is reported as 0.889 ± 0.04.
GGGTTTGGGC showed a switch fluorescence ratio of 1.01 ± 0.024.
GAGTATGCGC was tested, and the switch fluorescence ratio was 0.996 ± 0.017.
Sequence TTGACTGTAG has a switch fluorescence ratio of 0.982 ± 0.013.
